The target of this assay is T1, mCherry-α-catenin (UniProt P26231 1-906).
T1 construct: Monomeric pool from gel filtration; source: E. coli CK600K or BL21-DE3 Star, purified (Glutathione Sepharose, TEV protease cleavage, gel filtration; the monomeric pool was collected); not shown: GST (from the vector pGEX-2T); mCherry, N-terminal, kept
T1 sequence (looked up): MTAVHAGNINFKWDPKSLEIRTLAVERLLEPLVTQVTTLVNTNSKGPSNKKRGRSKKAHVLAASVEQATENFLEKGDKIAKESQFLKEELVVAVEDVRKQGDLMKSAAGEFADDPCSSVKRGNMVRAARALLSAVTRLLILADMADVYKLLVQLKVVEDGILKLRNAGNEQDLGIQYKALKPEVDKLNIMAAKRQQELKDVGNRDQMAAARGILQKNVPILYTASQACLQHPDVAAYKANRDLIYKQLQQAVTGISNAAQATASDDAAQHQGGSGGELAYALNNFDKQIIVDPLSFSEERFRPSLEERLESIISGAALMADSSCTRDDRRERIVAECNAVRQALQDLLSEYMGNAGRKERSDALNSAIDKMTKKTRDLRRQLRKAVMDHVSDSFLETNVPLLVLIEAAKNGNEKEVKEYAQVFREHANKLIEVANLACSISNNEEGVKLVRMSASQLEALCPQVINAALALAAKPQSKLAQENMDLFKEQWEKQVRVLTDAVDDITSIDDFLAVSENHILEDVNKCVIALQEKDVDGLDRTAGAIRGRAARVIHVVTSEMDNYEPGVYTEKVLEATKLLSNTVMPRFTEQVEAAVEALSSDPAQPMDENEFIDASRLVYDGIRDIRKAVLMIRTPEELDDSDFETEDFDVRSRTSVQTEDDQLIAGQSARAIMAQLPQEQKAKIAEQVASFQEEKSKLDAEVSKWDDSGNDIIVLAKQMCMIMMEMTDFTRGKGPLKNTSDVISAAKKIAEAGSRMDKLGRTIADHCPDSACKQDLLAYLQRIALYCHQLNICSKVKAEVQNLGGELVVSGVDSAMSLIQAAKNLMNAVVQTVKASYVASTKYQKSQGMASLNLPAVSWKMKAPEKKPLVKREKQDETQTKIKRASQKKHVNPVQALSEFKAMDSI
The assay can be described thus: droplet co-partition assay (confocal microscopy); purified fluorescent proteins mixed at equimolar 1 μM with mEGFP-β-catenin (Wt or IDRs*) in droplet formation buffer (50 mM Tris-HCl pH 7.5, 125 mM NaCl, 10% glycerol, 1 mM DTT); droplets induced with 10% PEG-8000; fluorescence inside β-catenin droplets. The settings on record: both partners purified.

The record followed here is publication PMC12783686, “β-catenin condensation facilitates clustering of the cadherin/catenin complex and formation of nascent cell-cell junctions” (Nature Communications, 2025).

B1: mEGFP-β-catenin^Wt (natural protein, UniProt P35222 1-781, looked up)
chain: MATQADLMELDMAMEPDRKAAVSHWQQQSYLDSGIHSGATTTAPSLSGKGNPEEEDVDTSQVLYEWEQGFSQSFTQEQVADIDGQYAMTRAQRVRAAMFPETLDEGMQIPSTQFDAAHPTNVQRLAEPSQMLKHAVVNLINYQDDAELATRAIPELTKLLNDEDQVVVNKAAVMVHQLSKKEASRHAIMRSPQMVSAIVRTMQNTNDVETARCTAGTLHNLSHHREGLLAIFKSGGIPALVKMLGSPVDSVLFYAITTLHNLLLHQEGAKMAVRLAGGLQKMVALLNKTNVKFLAITTDCLQILAYGNQESKLIILASGGPQALVNIMRTYTYEKLLWTTSRVLKVLSVCSSNKPAIVEAGGMQALGLHLTDPSQRLVQNCLWTLRNLSDAATKQEGMEGLLGTLVQLLGSDDINVVTCAAGILSNLTCNNYKNKMMVCQVGGIEALVRTVLRAGDREDITEPAICALRHLTSRHQEAEMAQNAVRLHYGLPVVVKLLHPPSHWPLIKATVGLIRNLALCPANHAPLREQGAIPRLVQLLVRAHQDTQRRTSMGGTQQQFVEGVRMEEIVEGCTGALHILARDVHNRIVIRGLNTIPLFVQLLYSPIENIQRVAAGVLCELAQDKEAAEAIEAEGATAPLTELLHSRNEGVATYAAAVLFRMSEDKPQDYKKRLSVELTSSLFRTEPMAWNETADLGLDIGAQGEPLGYRQDDPSYRSFHSGGYGQDALGMDPMMEHEMGGHHPGADYPVDGLPDLGHAQDLMDGLPPGDSNQLAWFDTDL
notes: also called mEGFP-β-cat^Wt; source: E. coli CK600K or BL21-DE3 Star, purified (Glutathione Sepharose, TEV protease cleavage, gel filtration); not shown: GST (from the vector pGEX-2T); mEGFP, N-terminal, kept
Take B1: the binding result is recorded as “binds”.
